Experiment: soluble on expression in E. coli; label from the status in PepcDB or PDB records

Question: Which “soluble on expression in E. coli” value does the source give for “MSLTFIRKVETWITNSKQTEDGWSQIKPFIFLKLTNSDGFEGWGEAFSLPAREKGIVEIIHNLMSSLSYVKDITPDRFYTESNLIADGHRGIDFSAATSAIEMSLWDIEGKKEKKPLYKILSKDYREKVPVYATIWSEDFKNDENLSSRCIEILSDGYGGIKIYPLQNRTVEQAAKCVSKIRDVLGYKIPLMLDLACPKDTNISLKLASLVEEFRPYWFEEPVDGEATRALKDIREKTSLRIVSGEKQCGLNHFIETLALDAVDIFNPDISGVGGIIDMIKIIKLSHEKKVTVSPHCWNSMSIAASAMVHVCMSFTNTEMAEFFPEYIPYSLKFSNQNYEIKDGFVKIEDNEGLGINIDTKLLMEDTSSYRETELTEGHHHHHH” here?
Answer: The value was “soluble”.

Question: For “MSLTGETLFGTIELVGYRDNYGQIKIPRRPLNPGEKVYGVDYEFLSKFYKFDENTSINIGNLIGYDKGSNIVPVYLDVNKLVTEHLAVLAMTGSGKSYTVGRIIERLVAEMNGTVVVFDVHGEYGKAFEKGEIHFNNNLDFIEDEREKKSIQRIQENLIKMQNAGGGIKVYTPQIDSFDYKYSGKNHHLALQFDRFDMDDLSSILPGLTEAQERVLDVAIRYWKAKYNHPPRDIQDLTYLLSDEQGLEELKNWDNLTEGEAKALNNRSAAVASMKLTRVINEAKSFYTRAIGEPTDIYDMIGEKGNSVGRLVIIDLQGLSDDAKQIITALISSEIMRAASDKKRQIRPCFLVYEEGHNFAPAGIPSISKKIIKKIAAEGRKFGVGFAIISQRPSKLDPDVTSQCNTIITMRLKNPDDQRFIAKTSDMFSSSDIEELPSLSTGEALINGRSIPAPLLVKVGTKALIHGGESPEVIKEWGVFNGEGHHHHHH”, which “soluble on expression in E. coli” value is on record?
Answer: The value was “not soluble”.

Question: Which “soluble on expression in E. coli” value does the source give for “MSLTGNAQAATIADPSTLVVDTVGPVLTIGLNRPKKRNALNDGLMAALKDCLTDIPDQIRAVVIHGIGDHFSAGLDLSELRERDATEGLVHSQTWHRVFDKIQYCRVPVIAALKGAVIGGGLELACAAHIRVAEASAYYALPEGSRGIFVGGGGSVRLPRLIGVARMADMMLTGRVYSAAEGVVHGFSQYLIENGSAYDKALELGNRVAQNAPLTNFAVLQALPMIAEANPQTGLLMESLMATVAQSDQEAKTRIRAFLDHKTAKVREGHHHHHH” here?
Answer: Its value is “soluble”.

Question: With “MSLTHPDFTILYVDNPPASTQFYKALLGVDPVESSPTFSLFVLANGMKLGLWSRHTVEPKASVTGGGGELAFRVENDAQVDETFAGWKASGVAMLQQPAKMEFGYTFTAADPDSHRLRVYAFAGEGHHHHHH” as the sequence, how does the “soluble on expression in E. coli” value read?
Answer: The value was “not soluble”.

Question: With “MSLTIDRIRALVSEDFNAVNNLIIDKIQSQVGLIQDLSQHIVESGGKRLRPLVVLLASNACGYKGKDHISLAAMVEFFHTATLLHDDVIDESTLRRGRQTANSIWGSKASVLVGDYLFTQSVNLMVEVGIKEILNLLANTSHQITCGEVKQLANRHNPALTLDDYFDVIRAKTALLFAAAACIGPILTNAPIELRNSLYNYGLHLGNAFQLIDDALDYCSDAATLGKNIGDDLADGKATLPLIHALQNGNATQQQQIRESLMKGSLSHLPDILIAIEQTEAIPFTKRIAAQEVDSALSALEILPDSVYKEALVDLAKFALERNYEGHHHHHH” as the sequence, how does the “soluble on expression in E. coli” value read?
Answer: The value was “soluble”.

Question: With “MSLTKDDQKELGKTLWAIADQLRGSMNADDFRDYMLSFLFLRYLSDNYEAAAKKELGSDYPDAKTIGNSDKTPLSVWYASNPGDVAAFEQQMRRKAHYVIKPKYLWGNIVNLAKKQNHDLLDTLQQGFKHIEEDSFESEFQGLFSEINLASDKLGRKYDDRNAKLCSIISEIARGMALSAKTDSLGDAYEYLIGQFAAGSGKKAGEFYTPQEISNILSAIVTLDSQEPKTGPRGKLDSVFDFACGSGSLLLNIRNRMTNSGGSIGKIYGQEYNVTTYNLARMNMLLHGVKDTEFEIYHGDTLKNDWDWLRETNPAKKPRFDAVVANPPFSYRWEPGEAMAQDARFKNHGVAPKSAADFAFLLHGLQYLKDDGVMAIILPHGVLFRGGKEADIRRKLLDDGHIDTVIGLPANLFYSTGIPVCILVLKKCKKPDDVLFINAAGHFAKGKRQNQLTDEHIQRIVNTYQNRNKQDRYSRCVSMKEIADKDYNLNISRYVSTAEADKEIVLEAVHADLTAIESRLEESKKRHNAFLVELGLKPLPEGHHHHHH” as the sequence, how does the “soluble on expression in E. coli” value read?
Answer: The value was “soluble”.

Question: Which “soluble on expression in E. coli” value does the source give for “MSLTKLLLLQKIKDPDLKQIHRDFPDLELINADEMTNELVDQIEIVYGQFSHLQKGYGFSSWFGKVVPNGKSLKWVQTISAGIDFLPLDQLAKRGIMVSNMSGLHSEAISENVLAYILILNRGLKFALANQAKQSWDFNFPKIKQLQDKKILIFGTGAIGSAIAKILQAFDVEVIGVNRHGKDLKYFDRVITQEQLGDFADADYLISDMPLTTQTRGYFDSDFFSLFKKQPIFINVGRGPSVVEKDLIKALKADILSGAALDVFEHEPLASDSPLWKMENVIVTPHSSALLEHFQRDAYKIFGPNLKSYLANGEGHHHHHH” here?
Answer: Its value is “not soluble”.

Question: For “MSLTKNNISFYVVDASEELTMNIKEASEKSGVSADTIRYYERIGLIPPIHRNESGVRKFGAEDLRWILFTRQMRRAGLSIEALIDYLALFREGEHTLEARAELLKKQRIELKNRIDVMQEALDRLDFKIDNYDTHLIPAQEELKDFNVERSNEGHHHHHH”, which “soluble on expression in E. coli” value is on record?
Answer: The value was “soluble”.

Question: With “MSLTLKLGFKPFSFHLLRSLRTSQGIIKKKEGWLIKLENKTGRLGWGEIAPLNLSELNICGKILEKLGNSPSRQTLEEGIPNWPGSLAFAIGAALAEIDYLIGNDSKNKWLSVTSSALLLPNEESILLNTLQSVLDKHKETQKELTFKWKIRNTSSDSDLNLLKKILFLLPENTRLRIDANGGLNRIQAHEWAQALQNEARIEWLEQPLAVDDIEGMNELAQMLPIALDESLIYNPSLRKSWTGWQIRRPLIEGDPRILLKEFKEKNSYISISTSFETGIGKRWIEHFAALQLRGLTPTQPGLAPGWCPKGPLFCQNPQLVWEAAEGHHHHHH” as the sequence, how does the “soluble on expression in E. coli” value read?
Answer: Its value is “soluble”.

Question: With “MSLTNFSQQHLPLVEKVMVDFIAEYTENERLKEAMLYSIHAGGKRLRPLLVLTTVAAFQKEMETQDYQVAASLEMIHTYSLIHDDLPAMDDDDLRRGKPTNHKVFGEATAILAGDGLLTGAFQLLSLSQLGLSEKVLLMQQLAKAAGNQGMVSGQMGDIEGEKVSLTLEELAAVHEKKTGALIEFALIAGGVLANQTEEVIGLLTQFAHHYGLAFQIRDDLLDATSTEADLGKKVGRDEALNKSTYPALLGIAGAKDALTHQLAEGSAVLEKIKANVPNFSEEHLANLLTQLQLREGHHHHHH” as the sequence, how does the “soluble on expression in E. coli” value read?
Answer: Its value is “soluble”.

Question: Which “soluble on expression in E. coli” value does the source give for “MSLTNNSETFNVLHASDFHIQLDYKLGAEGNCTLVPCGTSSSYSKDAPGKTYNFTDYYKSFNSDVSGNDISFYPDSHYDENAKFSKGDYYDFPQYFGWSFNKAPATSFGAYLSDAPYLLVNNSIVEMKKLHQEKNFESIIFTGDSFSHNGELANPDELKFSEAAIFNLINHYLNGVQVFPALGNHDTMFRYAEVAPRIYVSNASYYWNEDYVTDLWVNNGWFDKKDADAIKTHYTGYSFTTKRGLKVIGMNSNFYYGDNLWSYGETTTKPDKFGIWKFLIDELVDSESHGQRVWIMAHIPSNNYDVLPIQSHIFAAIVKRFSPYTIANLFFGHTHRTQYSVYYSTNDTSKIEDALTVSWVNPSVTPYTNFNPGFRYYEVENESFNIRNSFSYYFDLNGTEGHHHHHH” here?
Answer: Its value is “soluble”.

Question: Which “soluble on expression in E. coli” value does the source give for “MSLTPEHLPTEQYEAQLAEKVVRLQSMMAPFSDLVPEVFRSPVSHYRMRAEFRIWHDGDDLYHIIFDQQTKSRIRVDSFPAASELINQLMTAMIAGVRNNPVLRHKLFQIDYLTTLSNQAVVSLLYHKKLDDEWRQEAEALRDALRAQNLNVHLIGRATKTKIELDQDYIDERLPVAGKEMIYRQVENSFTQPNAAMNIQMLEWALDVTKGSKGDLLELYCGNGNFSLALARNFDRVLATEIAKPSVAAAQYNIAANHIDNVQIIRMAAEEFTQAMNGVREFNRLQGIDLKSYQCETIFVDPPRSGLDSETEKMVQAYPRILYISCNPETLCKNLETLSQTHKVERLALFDQFPYTHHMECGVLLTAKEGHHHHHH” here?
Answer: Its value is “soluble”.

Question: Which “soluble on expression in E. coli” value does the source give for “MSLTQETALGAALKSAVQTMSKKKQTEMIADHIYGKYDVFKRFKPLALGIDQDLIAALPQYDAALIARVLANHCRRPRYLKALARGGKRFDLNNRFKGEVTPEEQAIAQNHPFVQQALQQQSAQAAAETLSVEAEAAESSAAEEGGSHHHHHH” here?
Answer: Its value is “soluble”.

Question: For “MSLTQGSVIFTQNRPGLDEKIFKIYKFKTMSDERDEKGELLSDELRLKAFGKIVRSLSLDELLQLFNVLKGDMSFVGPRPLLVEYLPLYNKEQKLRHKVRPGITGWAQVNGRNAISWQKKFELDVYYVKNISFLLDLKIMFLTALKVLKRSGVSKEGHVTTEKFNGKNEGHHHHHH”, which “soluble on expression in E. coli” value is on record?
Answer: Its value is “not soluble”.

Question: With “MSLTQMEMARKGVVSDEMKKVAEYEGVDVEIVRQKLAEGRAVLPKNKLHRIERPMIVGEGFSVKVNANIGTSQGFSSLEEEKEKARVAIEYGADSLMVLSTWGDLREIRRAIVEMSPVPVGSVPIYDSAVRSYQMKKNVVDFSEKDFFDMVIAHAEDGIDFMTIHVGVTRRVLDRIKSSRRVLKIVSRGGAIIAGWMIKNNKENPFYEHFDELLDIAKDYDITLSLGDGMRPGAVVDASDAQQFEELFVMGELVERAREKGVQVMLEGPGHVPLNEVEMNVRLMKKIGKGAPIFLLGPLPTDRAMGYDHIACAIGGALAGYYGADFLCYVTPSEHISLPDVEDVREGVIASKIAAIVADVARGNKKAWELEKKMALARKNFDWETMFSLSLGKDVAKKKYEERPYPDKGCSMCGPFCAIKIAEEFSEGHHHHHH” as the sequence, how does the “soluble on expression in E. coli” value read?
Answer: The value was “soluble”.

Question: For “MSLTQRIDFQTDPSRYRHWRVAYDGEIANLYMDVDEQGGLFPGYELKLNSYDLGVDIELADIVQRMRFEHPEVKVVVMQSGKDRVFCAGANIRMLGGASHAHKVNFCKFTNETRNTYEAAEADSGQKYIAAVKGACAGGGYELALACNYIMLTNDSSSSVALPEVPLLAVLPGTGGLTRVTDKRKVRRDLADVFCSVEEGVRGQRAVDWRLVDEIAPNSKFDEVVQERAREFASASVKPSGLTGIALTPLDRRFAEDGSVTYSTVEVVVEREAGRATLTISGPTDAAPDTVDALQAQGAEAWILRAARELDDAILHLRLNERRIGTLVIQTQGDGAAVAAHEALLLENRDHWLANEILQHWKRVLKRVDMTSRSLVAIVEHGSCFAGPLAELLWAVDRSYMMLEEFEGDNRPLAAITLSPGNFGTYPMGNDLSRLATRFLGTPEAVEAARARIGEALEAEEAEKLGLVTYVLDDIDWEDEVRVFLEERASFSPDAMTGMEANLRFAGPETMETRIFGRLTAWQNWIFQRPNAVGPDGALQRYGTGVRGDYDMERVEGHHHHHH”, which “soluble on expression in E. coli” value is on record?
Answer: Its value is “soluble”.

Question: Which “soluble on expression in E. coli” value does the source give for “MSLTQTPNTGSPHRVVIVGGGAGGLELAAKLGRAHGRERVTLVDSRPFHIWKPSLHEAAAGTLDIHQEGLSYLMLANMCNFTFAQGELQGIERERRQIQVGPVADPSGQQVLPPRELSYDTLVLAMGSTSNFFNTPGAAEHAVTLDTTENAEQFRLTMLKAMVQVDLRKVHDPSARLDLVIVGGGATGVELAVELIEASHVVSAYGLPNFRADRDLVITLVEGAPRILSALPEKISRAAHARLTELGVRVETDCRVAEVGADHVVTADGRRFEATMCLWAAGIEGPPLFRQLGLPLNRLGQLEVNERLESPDPHILALGDCCAAPWKDGRTVPARAQAAHQQADYLARKLTARLRNAAEPTEAYAYHDHGSLVSLGQGSGVGSLMGKLAGRGLFVSGTLARLMYMSLHLMHHRAVLGISRTATLALARLLMRRTRPRVKLHEGHHHHHH” here?
Answer: The value was “soluble”.

Question: Which “soluble on expression in E. coli” value does the source give for “MSLTQVPAGQFTATKNLRPAAKPGKDVVLRVYSDFQCPYCQKLELETMPALLRALPDDVRVEFHQFPLEQIHPLARPAAEASECAAQQGRFWDYKDALFRDRSWLQNNPNETFLRLAGDLKLDPGKFKDCLALRGGKAGVDAGLAEAQQLGLNATPTVFVDGYRVGNPFDTAAVLQLIDVARATREGHHHHHH” here?
Answer: The value was “soluble”.
